Values joined by “and” are separate entries in the source; they are usually repeats but may differ in a detail not shown here. Equal values may be shown once.
Key:
[1] = Pharmacokinetics of PEGylated htCBS C15S in HO mice (plasma CBS activity); format: in vivo
Description: (§1) For 20NHS PEG-htCBS C15S, HO mice were administered SQ a dose of 5, 10 or 15 mg/kg dose or were administered IV a dose of 10 mg/kg. For 400MA-htCBS C15S, HO mice received a single dose of 10 mg/kg either SC or IV of one of the three forms: (i) a mixture of all species, where no separation of individual forms has been attempted (mix), (ii) a homoPEGylated specie (Peak 1), and (iii) a hetero/hemiPEGylated species (Peak 2).
Both male and female HO mice were used in this example, and each group contained 3 to 4 mice. Two groups of mice designated “A” and “B” were used for each route of administration to minimize the blood volume taken from any one mouse. For SC administration, blood was collected from group A at 0.5, 3, 24, and 72 hours post-injection and from group B at 1, 6, 48, and 96 hours post-injection. For IV administration, blood was collected from group A at 0.25, 1, 6, and 48 hours post-injection and from group B at 0.5, 3, 24, and 72 hours post-injection.

[2] = tested on: homocysteine, cystathionine, cysteine; experiment: Pharmacodynamics after a single dose of PEGylated htCBS C15S in HO mice; format: in vivo
Description: Plasma metabolites homocysteine, cystathionine and cysteine were determined by stable-isotope-dilution liquid chromatography mass spectrometry as previously described in (Allen et al., 1993, Metabolism, 42: 1448-1460). Measurements of total non-protein bound homocysteine and other aminothiols as well as of amino acids in tissue were performed as described in (Maclean et al., 2010b. Mol. Genet. Metab. 101, 153-162). Metabolites were determined by stable-isotope-dilution liquid chromatography mass spectrometry.
as §1
Both male and female HO mice were used in this example, and each group contained 3 to 4 mice. Two groups of mice designated “A” and “B” were used for each route of administration to minimize the blood volume taken from any one mouse. For SC administration, blood was collected from group A at 0.5, 3, 24, and 72 hours post-injection and from group B at 1, 6, 48, and 96 hours post-injection. […]

KO mice [3] = experiment: Survival of KO mice treated with PEGylated htCBS C15S conjugates; format: in vivo, mouse
Description: A Kaplan Meyer survival curve was plotted of KO mice injected three times weekly with 7.5 mg/kg htCBS C15S PEGylated with ME-200MA0B (n=24), ME-400MA (n=31=13F+18M), or ME-200GS (n=28=14F+14M), and a group of KO mice (n=44) that was injected with PBS as a control. Lactating mothers were maintained on betaine water, and after weaning, the pups (day 21) were put on regular water with no betaine. The ability of the injected enzyme to rescue KO pups was tested.
After an initial 35 days (5 weeks) long treatment to prevent neonatal lethality of KO mice, the KO mice treated with 20NHS PEG-htCBS C15S were divided into two groups. One group (5 W) stopped receiving any treatment apart from the initial one, while the other group (CONT) continued with the same regimen for up to 120 days of age (7.5 mg/kg, SC, 3× a week).

KO mice [4] = experiment: DEXA bone mineralization and body composition in KO mice; format: in vivo, mouse; settings: 7.5 mg/kg SC 3x/week from day 2 to about 5 months
Description: A PIXImusII DEXA scanner (GE Lunar Medical Systems) specifically designed for scanning small animals such as mice was used for DEXA analysis. This machine enabled quick and efficient determination of the body composition (lean, fat mass, and bone density) of a mouse before terminal tissue extraction procedures. Mice were fasted for 4 hours prior to the DEXA measurement to remove food from the gastro-intestinal tract. Mice were then anesthetized using IP bolus injection of 60 mg/kg ketamine and 15 mg/kg xylazine and placed on a tray in the DEXA machine. After the measurement was done (3˜5 minutes), the mice were removed from the DEXA machine and used in terminal procedures, such as tissue extractions.
The bone mineral density (BMD) and bone mineral content (BMC) were analyzed by DEXA for three groups of mice: +/− healthy heterozygous controls (n=4M+6F), affected KO controls (n=5M+13F), and 20NHS PEG-htCBS C15S (C15S/ME-200GS)-treated KO mice (n=6M+15F). The 20NHS PEG-htCBS C15S-treated mice were administered 7.5 mg/kg subcutaneously (SC) three times a week from day 2 to about 5 months. All −/− KO mice were treated for the initial 5 W (from 2 to 35 days of age) to prevent neonatal lethality.

[5] = Pharmacokinetics of 20NHS PEG-htCBS C15S in rats; settings: for AUC/dose corrected to 80% bioavailability / Cmax/dose corrected to 80% bioavailability / tmax: SC
Description: CBS activity was determined by a radioisotope assay with C^14-labeled serine as a substrate. Ten μl (total 490 ng) of pure htCBS in dilution buffer (0.1 M Tris-HCl pH=8.6, 1 mM DTT, 10 μM PLP, 0.5 mg/ml BSA) or 10 μl of plasma were added to 85 μl of reaction mixture containing 0.1 M Tris-HCl pH=8.6, 10 mM L-serine, 0.5 mM PLP, 0.5 mg/ml BSA and 0.3 μCi (for pure enzyme) or 0.45 μCi (for plasma) of L-[C^14(U)]-Serine. Samples were incubated for 5 min at 37° C. and reaction was initiated by addition of 5 μl of 0.2 M Hcy (10 mM final concentration). Following 30 min of incubation at 37° C., a 20 μl aliquot of the assay mixture was applied onto a grade 3 CHR Whatman (NJ, USA) paper. Assay initiation and sampling of the resulting mixture were staggered so that each reaction time was 30 minutes. Descending paper chromatography was used to isolate the radioactive product (Cth) from a labeled substrate (Ser). The C^14-cystathionine formed in the reaction was separated from C^14-serine by an overnight descending paper chromatography in 2-propanol/formic acid/H2O (75:5.7:18.9 v/v). Radioactivity in the area of the marker cystathionine (detected by staining the marker lane with ninhydrin) was determined by cutting the chromatogram into strips that were submerged in 5 ml of Opti-fluor scintillation cocktail (PerkinElmer, MA, USA) and counted in a Beckman LS-3801 scintillation counter. An enzyme-free sample was used as a blank to monitor the background radioactivity that was then subtracted from each sample. For pure enzyme, specific activity values are expressed as enzyme units (the amount of enzyme that produces 1 μmol of cystathionine/hour) per mg of CBS, and for plasma samples as units per μl plasma.
The pharmacokinetic (PK) parameters were calculated using a non-compartmental curve stripping model which resolves a curve into a series of exponential terms corresponding to the absorption, distribution and elimination phases occurring during the time course of the enzyme in the blood. The curve stripping approach assumes that the disposition phases of the drug follow apparent first-order kinetics, which is evidenced by the linearity in the terminal portion of a semi-log plot. These calculations were made using a modeling program called PK Solutions 2.0 (Summit Solutions, Montrose, CO) using the mean plasma enzyme activity for each route of administration. The bioavailability was calculated by dividing the area under the curve (AUC) for the SC or IP route by the AUC observed after IV administration.
In order to assess the pharmacokinetics of 20NHS PEG-htCBS C15S in rats, wild-type Sprague Dawley rats were injected with a single dose of 20NHS PEG-htCBS C15S through intra-vascular (IV) or sub-cutaneous (SC) routes. The design of a third (repeated dose) PK study (groups 7-9) was adjusted to allow extraction of data after the first dose and thus their combination with a single dose PK study (groups 1-6).
To further evaluate rats as a species for conducting long-term toxicity studies, the pharmacokinetics of 20NHS PEG-htCBS C15S was determined in three groups of Sprague Dawley rats receiving a total of 9 SC injections every 48 hours of either 4 mg/kg (low), 8 mg/kg (mid), or 24 mg/kg (high) 20NHS PEG-htCBS C15S. […] The experiment was conducted for a length of 24 days.

## 20NHS PEG-htCBS C15S: htCBS C15S PEGylated with ME-200GS PEG (20 kDa linear NHS ester-activated PEG)
[1]; 10 mg/kg IV
  E Half-life: 47.6 ± 14.6 h
[1]; mouse, in vivo
  average circulating time of a single enzyme molecule (MRT): 44 to 194 h
[1]; mouse, in vivo, iv, 10 mg/kg
  AUC(0-t) (obs area): 7431 ± 154 mU-hr/μL
  CL (obs area): 1346 ± 27.3 µL/h
  MRT (area): 52 ± 13 h
  cmax (obs): 371.6 ± 11.2 mU/μL
[1]; mouse, in vivo, sc
  AUC/dose: 612 (mU-h/mL)/(mg/kg)
  T1/2: 20 h
  absorption half-life: 5 to 12 h
  bioavailability in HO mice: 52-83%
  cmax/dose: 10 (mU/μL)/(mg/kg)
  tmax: 24 h
[1]; mouse, in vivo, sc, 5 mg/kg
  A Half-life: 5.3 ± 1.1 h
  AUC in mice: 3060 mU−h/mL
  CL (obs area): 1636 ± 86 µL/h
  E Half-life: 137 ± 95 h
  MRT (area): 194 ± 128 h
  cmax/dose: 10.3
[1]; mouse, in vivo, sc, 10 mg/kg
  A Half-life: 12.7 ± 0.6 h
  Bioavailability: 64.6%
  CL (obs area): 2113 ± 280 µL/h
  E Half-life: 17.5 ± 1.27 h
  MRT (area): 44.8 ± 1.7 h
  cmax (obs): 89.9 ± 10.2 mU/μL
  cmax/dose: 9.0
[1]; mouse, in vivo, sc, 15 mg/kg
  A Half-life: 11.9 ± 1.2 h
  Bioavailability: 51.6%
  CL (obs area): 2609 ± 72 µL/h
  E Half-life: 22.0 ± 1.7 h
  MRT (area): 49.0 ± 1.4 h
  cmax (obs): 104.2 ± 11.3 mU/μL
  cmax/dose: 6.9
  half-life determinations in the SC dose groups: 17.5 to 137 h
[2]; SC, HO mouse model
  single dose producing maximal efficacy response: 5 mg/kg
[2]; single 10 mg/kg SC dose
  plasma levels of Hcy over time: remain decreased up to 72 hours
KO mice [3]; 7.5 mg/kg three times weekly, day 21
  survival: about 97%
KO mice [3]; continuous 7.5 mg/kg SC 3x a week up to 120 days of age
  survival of all mice: at least 119 days
KO mice [3]; treatment terminated after initial 35 days
  survival at 119 days of age: about 85%
KO mice [4]
  BMD vs control groups: significantly higher BMD than both control groups
  osteoporosis and body composition (DEXA): completely prevented profound osteoporosis and improved body composition
[5]; 9 SC injections every 48 hours, 4, 8 or 24 mg/kg
  plasma CBS activity on repeated dosing: substantial decline in peak CBS activities
[5]; Rat/Female
  AUC/dose corrected to 80% bioavailability: 1233 (mU-h/mL)/(mg/kg)
  Cmax/dose corrected to 80% bioavailability: 16 (mU/μL)/(mg/kg)
  tmax: 29 h
[5]; Rat/Male
  AUC/dose corrected to 80% bioavailability: 1452 (mU-h/mL)/(mg/kg)
  Cmax/dose corrected to 80% bioavailability: 17 (mU/μL)/(mg/kg)
  tmax: 35 h
[5]; females, 4 mg/kg IV
  AUC0−t (obs area): 6165 mU-h/μl
  Bioavailability: 100%
  MRT (area): 45.5 h
  cp0: 186.2 mU/μl
[5]; females, 8 mg/kg SC
  AUC0−t (obs area): 4505 mU-h/μl
  Bioavailability: 36.5%
  MRT (area): 76.8 h
  cmax: 58.2 mU/μl
  tmax (obs): 24 h
[5]; females, 24 mg/kg SC
  AUC0−t (obs area): 13135 mU-h/μl
  Bioavailability: 35.5%
  MRT (area): 79.8 h
  cmax: 166.3 mU/μl
  tmax (obs): 48 h
[5]; male rats, across doses
  bioavailability (F %) after SC administration: 19-21% and 20%
[5]; males, 4 mg/kg IV
  AUC0−t (obs area): 7231 mU-h/μl
  Bioavailability: 100%
  MRT (area): 52.9 h
  cp0: 182.1 mU/μl
[5]; males, 8 mg/kg SC
  AUC0−t (obs area): 2703 mU-h/μl
  Bioavailability: 18.7%
  MRT (area): 65.6 h
  cmax: 32.7 mU/μl
  tmax (obs): 48 h
[5]; males, 24 mg/kg SC
  AUC0−t (obs area): 9269 mU-h/μl
  Bioavailability: 21.3%
  MRT (area): 66.1 h
  cmax: 110.0 mU/μl
  tmax (obs): 38 h

Reference: patent US12194082B2, “Compositions and methods for treatment of homocystinuria” (THE REGENTS OF THE UNIVERSITY OF COLORADO, priority 2016, dated 2025)
